From patent US20220017636A1 (Amgen, published 2022) come the findings set out here.

Holding throughout (assay): flow cytometry, peptide-loaded T2 cells;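 further: binding of single-chain Fv antibody constructs, raised in XenoMouse, to peptide-pulsed T2 cells measured by flow cytometry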
In general terms: In flow cytometry, cells or beads pass a laser one at a time.

In experiment [1] the target is T1, MAGEB2 peptide … (SEQ ID NO: 1) complexed with HLA-A*02:01 on the cell surface (human).
T1 construct: whole, on cells; also called pMAGE-HLA; MAGEB2 pMHC

For experiment [2], the target named is T2, STXBP5 peptide complexed with HLA-A*02:01 on T2 cells (human).
T2 construct: whole, on cells

The target of experiment [3] is T3, MB peptide complexed with HLA-A*02:01 on T2 cells (human).
T3 construct: whole, on cells

Experiment [4] deals with T4, DPYSL4 peptide complexed with HLA-A*02:01 on T2 cells (human).
T4 construct: whole, on cells

Experiment [5] has as its target T5, SLK peptide complexed with HLA-A*02:01 on T2 cells (human).
T5 construct: whole, on cells

Experiment [6] addresses T6, MYOF peptide complexed with HLA-A*02:01 on T2 cells (human).
T6 construct: whole, on cells

For experiment [7], the target named is T7, KEA peptide complexed with HLA-A*02:01 on T2 cells (human).
T7 construct: whole, on cells

Experiment [8] has as its target T8, ADF peptide complexed with HLA-A*02:01 on T2 cells (human).
T8 construct: whole, on cells

Experiment [9] deals with T9, CNDP2 peptide complexed with HLA-A*02:01 on T2 cells (human).
T9 construct: whole, on cells; also called CNPD2

Experiment [10] addresses T10, COX14 peptide complexed with HLA-A*02:01 on T2 cells (human).
T10 construct: whole, on cells

B1: 18182-B5 (scFv)
scFv: EVQLLESGGGLVQPGGSLRLSCAASGFTFSSHAMSWVRQAPGKGLEWVSAISGSGGGTYYADSVKGRFTISRDNSKNTLYLQMNSLRAEDTAVYYCATGKGVHLGFDYWGQGTLVTVSSGGGGSGGGGSGGGGSELVLTQPPSVSVAPGQTARITCGGNNIGSKSVHWYQQKPGQAPVLVVYDDNDRPSGIPERFSGSNFGNTATLIISRVEAGDEADYYCQVWDSSSDHVVFGGGTKLTVL
notes: scFv in bacterial lysate, detected with anti-Flag M2
On to B1, for which the Signal/background in experiment [1] amounted to 560; in [2] it was 1; in experiment [3], 1; in [4], 1; in experiment [5], 1; in [6], 1. In addition, the Signal/background in [7] amounted to 0.9; in [8] it was 0.9; in [9], 1; in experiment [10] it was 1.

B2: 18182-E5 (scFv)
scFv: EVQLLESGGGLVQPGGSLRLSCAASGFTFSSYAMSWVRQAPGKGLEWVSTISGSGGGTYYADSVKGRFTISRDNSKNTLYLQMNSLRAEDTAVYYCATGKGVHLGFDYWGQGTLVTVSSGGGGSGGGGSGGGGSELVLTQPPSVSVAPGQTARITCGGNNIGSKSVHWHQQKPGQAPVLVVYDDNDRPSGIPERFSGSNSGNTATLTISRVEAGDEADYYCQVWDYSSDHVVFGGGTKLTVL
notes: as for B1
With B2, the Signal/background in experiment [1] came out at 205; in experiment [2], 0.8; in experiment [3] it was 0.9; in experiment [4], 1; in experiment [5], 1; in experiment [6], 0.9. Also, the Signal/background in [7] was determined as 0.9; in experiment [8] it was 1; in experiment [9], 0.8; in [10], 0.9.

B3: 18182-B12 (scFv)
scFv: EVQLLESGGGLVQPGGSLRLSCAASGFTFSSYAMSWVRQAPGKGLEWVSAISGSGGGTYYADSVKGRFTISRDNSKNTLYLQMSSLRAEDTAVYYCATGKGVHLGFDYWGQGTLVTVSSGGGGSGGGGSGGGGSELVLTQPPSVSVAPGQTARITCGGNNIGSKSVHWHQQKPGQAPVLVVYDDNDRPSGIPERFSGSNSGNTATLTISRVEAGDEADYYCQVWDYSSDHVVFGGGTKLTVL
notes: as for B1
As for B3, the Signal/background worked out at 208 in [1]; 0.9 in experiment [2]; 0.8 in experiment [3]; 1 in experiment [4]; 0.9 in experiment [5]; 0.8 in experiment [6]. For the same molecule, the Signal/background in experiment [7] worked out at 0.9; in experiment [8], 1; in experiment [9], 0.8; in experiment [10], 1.

B4: 18182-E10 (scFv)
scFv: EVQLLESGGGLVQPGGSLRLSCAASGFTFSSHAMSWVRQAPGQGLEWVSSISGSGGGTYYAASVKGRFTISRDNSKNTLYLQMNSLRAEDTAVYYCATGKGVHLNFDYWGQGTLVTVSSGGGGSGGGGSGGGGSELALTQPASASVAPGQTARITCGGNNIGSKSVHWHQQKPGQAPVLVVYDDNDRPSGIPERFSGSNSGNTATLTISRVEAGDEADFYCQVWDSSSDHVVFGGGTKLTVL
notes: as for B1
As to B4, the Signal/background in experiment [1] is 273; in [2], 0.8; in experiment [3] it was 0.9; in experiment [4] it was 0.9; in experiment [5] it was 1; in experiment [6] it was 0.9. In addition, the Signal/background in experiment [7] came out at 0.8; in experiment [8], 0.9; in experiment [9] it was 0.8; in experiment [10], 0.9.

B5: 18182-E6 (scFv)
scFv: EVQLLESGGGLVQPGGSLRLSCAASGFTFSSYAMSWVRQAPGKGLEWVSAISGSGGGTYYADSVKGRFTISRDNSKNTLYLQMNSLRAEDTAVYYCATGKGVHLNFDYWGQGTLVTVSSGGGGSGGGGSGGGGSELVLTQPSSVSVAPGQTARITCGGNNIGSKSVHWYQQKPGQAPVLVVYDDNDRPSGIPERFSGSNFGNTATLIISRVAAGDEADYYCQVWDSSSDHVVFGGGTKLTVL
notes: as for B1
Take B5: the Signal/background in [1] was determined as 431; in experiment [2] it was 0.9; in [3], 0.9; in experiment [4], 0.9; in [5], 1; in [6], 1. The Signal/background in [7] turned out to be 0.9; in experiment [8] it was 1; in [9], 1; in experiment [10], 1.

B6: 18182-A4 (scFv)
scFv: EVQLLESGGGVVQPGRSLRLSCAASGFTFSSYAMTWVRQAPGQGLEWVSSISGSGGGTYYAASVKGRFTISRDNSKNTLYLQMNSLRAEDTAVYYCATGKGVHLGFDYWGQGTLVTVSSGGGGSGGGGSGGGGSELVLTQPPSVSVAPGQTARITCGGNNIGSKSVHWYQQKPGQAPVLVVYDDNDRPSGIPERFSGSNFGNTATLIISRVAAGDEADYYCQVWDSSSDHVVFGGGTKLTVL
notes: as for B1
For B6, the Signal/background in experiment [1] came to 202; in [2] it was 0.8; in experiment [3], 1; in experiment [4] it was 1; in [5], 1; in [6] it was 1. The Signal/background in experiment [7] was found to be 0.9; in experiment [8] it was 1.1; in experiment [9] it was 0.8; in experiment [10], 0.9.

B7: 18182-E1 (scFv)
scFv: EVQLLESGGGLVQPGGSLRLSCAASGFTFSSHAMSWVRQAPGKGLEWVSAISGSGGGTYNADSVKGRFTISRDNSKNTLYLQMNSLRAEDTAAYYCVTGKGVHLGFDYWGQGTLVTVSSGGGGSGGGGSGGGGSELVLTQPPSVSVAPGQTARITCGGNNIGSKSVHWYQQKPGQAPVMVVYDDNDRPSGIPERFSGSNSGNTATLTISRVEAGDEADYYCQVWDSSSDHVVFGGGTKLTVL
notes: as for B1
On to B7, for which the Signal/background worked out at 193 in [1]; 1 in [2]; 0.9 in experiment [3]; 0.9 in experiment [4]; 1 in [5]; 0.9 in [6]. The Signal/background in [7] worked out at 0.9; in [8], 1; in [9], 0.9; in [10] it was 0.8.

B8: 18089-D12 (scFv)
scFv: EVQLLESGGGVVQPGRSLRLSCAASGFTFSTYGMHWVRQAPGKGLEWVAVISYDGSNKYYADSVKGRFTISRDDSKNTLYLQMNSLRAEDTAVYYCARGQLLTGYWGQGTLVTVSSGGGGSGGGGSGGGGSELVMTQSPSSLSASVGDRVTITCRASQGISNYLAWYQQKPGKVPKLLIYAASTLQSGVPSRFSGSGSGTDFTLTISSLQPEDVATYYCQKYNSAPFTFGPGTKVEIK
notes: as for B1
For the molecule B8, the Signal/background in experiment [1] was 176; in [2] it was 1; in [3], 1.1; in experiment [4], 1.1; in experiment [5] it was 1.3; in experiment [6], 1.1. Also, the Signal/background in experiment [7] is 1; in experiment [8] it was 1.1; in experiment [9], 1; in experiment [10] it was 1.1.
